Source: patent publication US20160038607A1 (UNIVERSITY OF NOTRE DAME DU LAC, published 2016)
Bridges are numbered along the chain shown (N, C = ends). Where no end group is shown, it is not given here.

Key:
[1] = target: T1, Human Epidermal Growth Factor Receptor 2 (HER2) (human, UniProt P04626 23-1255); experiment: flow cytometry, fluorescein labeled peptide on BT-474 cells, on ice
T1 construct: whole, on cells; also called HER2 receptor
Protocol: (§1) For HER2 expression assays, cells were incubated with primary antibody in binding buffer on ice for 1 hour and washed twice. Fluorescein conjugated secondary antibody was added for 1 hour on ice, samples were washed, and analyzed on Guava easyCyte 8HT flow cytometer (Millipore). Isotype matched antibodies were used as negative controls. For cell-based peptide binding assays, cells were incubated with increasing concentrations of fluorescein-conjugated peptides for 2 hours on ice. Samples were washed twice and analyzed on Guava easyCyte 8HT flow cytometer.

[2] = target: T1, Human Epidermal Growth Factor Receptor …; experiment: flow cytometry, fluorescein labeled peptide on SK-BR-3 cells, on ice
Protocol: as §1

[3] = target: T1, Human Epidermal Growth Factor Receptor …; experiment: cell-based or functional assay

Binder: YCDGFYACYMDV (disulfide 2-8 (inferred); also: fluorescein label, position not given here) [HER2-antagonist peptide (HER2-pep), fluorescein labeled]
- Kd [1]: 1.97 µM
- Kd [2]: 1.75 µM

B1: HER2-pep-EG12-PA conjugate on PEG350 coated liposomes (95:10:3:2 HSPC:CHOL:PEG350:HER2-pep) (peptide)
peptide: YCDGFYACYMDV
modifications: disulfide 2-8 (inferred); not fully specified (N-terminus); also: displayed on PEG350-coated liposomes
- cellular uptake of liposomes at 2% peptide density, fold enhancement [3]: ~10 fold
- cellular uptake of liposomes by BT-474 and SK-BR-3 cells, 3 h (flow cytometry), fold greater than control [3]: ~9 fold
- cellular uptake of liposomes by BT-474 cells at 24 h, fold greater than control liposomes [3]: ~5 fold
- cellular uptake of liposomes by SK-BR-3 cells at 24 h, fold greater than control liposomes [3]: ~4 fold
